# Test results reported in the supplement of paper PMC9112550, “Optimization of the antimicrobial peptide Bac7 by deep mutational scanning” (BMC Biology, 2022).
# Tested on: Escherichia coli TOP10
# Test: shrunken log2 fold change of peptide-encoding DNA abundance (4.5 h post-induction vs induction); higher = less antimicrobial activity (less host growth inhibition)
# Conditions: time post-induction: 4.5 h; library: site-saturation at positions 5, 18, 19, 20
# 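Further: peptides expressed intracellularly from a pBAD plasmid library in pooled LB shake-flask culture, induced with 0.3% L-arabinose, DNA abundance read by NGS, three biological replicates, DESeq2 with apeglm shrinkage.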
row,Sequence,shrunken log2 fold change
1,RRIRIRPPRLPRPRPRPGQFPRP,-0.0255
2,RRIRWRPPRLPRPRPRPKSDPRP,0.473
3,RRIRMRPPRLPRPRPRPTSCPRP,0.415
4,RRIRLRPPRLPRPRPRPKKFPRP,-0.322
5,RRIRIRPPRLPRPRPRPQKPPRP,-0.00327
6,RRIRIRPPRLPRPRPRPDGAPRP,-0.237
7,RRIRSRPPRLPRPRPRPCYGPRP,-0.523
8,RRIRPRPPRLPRPRPRPWVQPRP,0.0127
9,RRIRVRPPRLPRPRPRPAGRPRP,1.22
10,RRIRKRPPRLPRPRPRPRCEPRP,0.568
11,RRIRLRPPRLPRPRPRPQRRPRP,0.0742
12,RRIRTRPPRLPRPRPRPHRFPRP,-0.0213
13,RRIRERPPRLPRPRPRPCYEPRP,-0.0528
14,RRIRQRPPRLPRPRPRPVQLPRP,0.163
15,RRIRYRPPRLPRPRPRPNKYPRP,-0.908
16,RRIRVRPPRLPRPRPRPQNSPRP,-0.802
17,RRIRGRPPRLPRPRPRPYTQPRP,-0.0862
18,RRIRARPPRLPRPRPRPAGVPRP,0.45
19,RRIRKRPPRLPRPRPRPETLPRP,0.0437
20,RRIRFRPPRLPRPRPRPLINPRP,-0.421
21,RRIRNRPPRLPRPRPRPIAYPRP,-0.0604
22,RRIRYRPPRLPRPRPRPPLKPRP,-0.192
23,RRIRIRPPRLPRPRPRPNDWPRP,0.0555
24,RRIRWRPPRLPRPRPRPHWQPRP,-0.00204
25,RRIRQRPPRLPRPRPRPHQWPRP,0.323

row,Sequence,shrunken log2 fold change
1,RRIRGRPPRLPRPRPRPWWNPRP,-0.148
2,RRIRMRPPRLPRPRPRPTKKPRP,0.0359
3,RRIRCRPPRLPRPRPRPQWGPRP,0.502
4,RRIRQRPPRLPRPRPRPETAPRP,0.159
5,RRIRERPPRLPRPRPRPMSEPRP,0.0552
6,RRIRHRPPRLPRPRPRPRPTPRP,0.759
7,RRIRVRPPRLPRPRPRPHDGPRP,0.0377
8,RRIRVRPPRLPRPRPRPQNWPRP,0.0353
9,RRIRHRPPRLPRPRPRPYVHPRP,-0.312
10,RRIRFRPPRLPRPRPRPYRFPRP,-0.243
11,RRIRHRPPRLPRPRPRPDWIPRP,-0.111
12,RRIRNRPPRLPRPRPRPPAPPRP,0.78
13,RRIRMRPPRLPRPRPRPPTIPRP,0.301
14,RRIRERPPRLPRPRPRPPLYPRP,0.127
15,RRIRTRPPRLPRPRPRPNAWPRP,0.0447
16,RRIRDRPPRLPRPRPRPCNMPRP,-0.225
17,RRIRERPPRLPRPRPRPYRAPRP,0.0532
18,RRIRRRPPRLPRPRPRPGQCPRP,0.22
19,RRIRFRPPRLPRPRPRPQSHPRP,-0.243
20,RRIRQRPPRLPRPRPRPHCSPRP,-0.104
21,RRIRNRPPRLPRPRPRPMGKPRP,-0.491
22,RRIRERPPRLPRPRPRPPTMPRP,-0.151
23,RRIRRRPPRLPRPRPRPAVYPRP,0.0519
24,RRIRFRPPRLPRPRPRPCCEPRP,-0.414
25,RRIRTRPPRLPRPRPRPYAQPRP,-0.495

row,Sequence,shrunken log2 fold change
1,RRIRKRPPRLPRPRPRPYAIPRP,0.0303
2,RRIRRRPPRLPRPRPRPPIIPRP,0.164
3,RRIRVRPPRLPRPRPRPVMVPRP,-0.166
4,RRIRMRPPRLPRPRPRPAKHPRP,0.542
5,RRIRERPPRLPRPRPRPVRWPRP,0.635
6,RRIRLRPPRLPRPRPRPLYDPRP,-0.924
7,RRIRPRPPRLPRPRPRPQCYPRP,-0.44
8,RRIRDRPPRLPRPRPRPTNDPRP,0.0152
9,RRIRPRPPRLPRPRPRPMLDPRP,0.071
10,RRIRRRPPRLPRPRPRPSFVPRP,-0.0435
11,RRIRARPPRLPRPRPRPQPQPRP,0.436
12,RRIRPRPPRLPRPRPRPMINPRP,-0.179
13,RRIRARPPRLPRPRPRPGYEPRP,0.246
14,RRIRGRPPRLPRPRPRPDSKPRP,0.125
15,RRIRPRPPRLPRPRPRPDQHPRP,-0.0313
16,RRIRMRPPRLPRPRPRPKLYPRP,0.256
17,RRIRPRPPRLPRPRPRPSVCPRP,-0.273
18,RRIRNRPPRLPRPRPRPGFGPRP,0.25
19,RRIRARPPRLPRPRPRPDTDPRP,0.365
20,RRIRQRPPRLPRPRPRPEGMPRP,0.13
21,RRIRERPPRLPRPRPRPNRCPRP,-0.00988
22,RRIRERPPRLPRPRPRPNWHPRP,-0.185
23,RRIRARPPRLPRPRPRPHALPRP,0.112
24,RRIRVRPPRLPRPRPRPPHPPRP,0.261
25,RRIRFRPPRLPRPRPRPYVGPRP,-0.108
